B1: PN-621 Variant, five sequences α8 and one sequence β8 (designed binder)
chain: ADNIFNREVQAAFYHILHLPNLTEEQRNAFIQSLRDDPSVVAEILAEARRLNDAQAPRADNIFNREVQAAFYHILHLPNLTEEQRNAFIQSLRDDPSVVAEILAEARRLNDAQAPRADNIFNREVQAAFYHILHLPNLTEEQRNAFIQSLRDDPSVVAEILAEARRLNDAQAPRADNIFNREVQAAFYHILHLPNLTEEQRNAFIQSLRDDPSVVAEILAEARRLNDAQAPRADNIFNREVQAAFYHILHLPNLTEEQRNAFIQSLRDDPSVVAEILAEARRLNDAQAPRADNIFNREVQAAFYHILHLPNLTEEQRNAFIQSLRDDPSKVKKILKEAKKLNKAQAPK
B2: PN-621 Variant, five sequences α10 and one sequence β10 (designed binder)
chain: ADNIFNEELQHAFYLILHLPNLTEEQRNAFIQSLRDDPSVVAEILAEARRLNDAQAPRADNIFNEELQHAFYLILHLPNLTEEQRNAFIQSLRDDPSVVAEILAEARRLNDAQAPRADNIFNEELQHAFYLILHLPNLTEEQRNAFIQSLRDDPSVVAEILAEARRLNDAQAPRADNIFNEELQHAFYLILHLPNLTEEQRNAFIQSLRDDPSVVAEILAEARRLNDAQAPRADNIFNEELQHAFYLILHLPNLTEEQRNAFIQSLRDDPSVVAEILAEARRLNDAQAPRADNIFNEELQHAFYLILHLPNLTEEQRNAFIQSLRDDPSKVKKILKEAKKLNKAQAPK

Legend:
[1] = target: human polyclonal IgG (available from Japan Blood Products Organization) (human); assay: elution ratio at pH 4.0 relative to PN-621
[2] = target: human polyclonal IgG (available from Japan Blood Products Organization) (human); assay: dynamic binding, 3 mg/mL IgG, 10% breakthrough, 5 min retention
[3] = target: human polyclonal IgG (available from Japan Blood Products Organization) (human); assay: immobilised on agarose gel; IgG eluted at pH 4.0 as % of pH 4.0 + pH 2.8 eluates

| Binder | Elution Ratio, relative ratio with respect to PN-621 [1] | Binding Amount of IgG [2] | Elution Ratio (%) under Weakly Acidic Conditions [3] |
| --- | --- | --- | --- |
| B1 | 1.63 | 66 mg/mL gel | 75.7% |
| B2 | 1.79 | 69 mg/mL gel | 82.9% |
